Source: patent US20230303695A1 (SHANGHAI XBH BIOTECHNOLOGY, published 2023)
Where a chain is given by its changes, count along the chain named.

Legend:
[1] = molecular target: T1, IGSF8 extracellular domain (ED) (Homo sapiens (Human), UniProt Q969P0 28-579); test: ELISA on IGSF8 extracellular domain
T1 construct: also called IGSF8 ECD
T1 sequence: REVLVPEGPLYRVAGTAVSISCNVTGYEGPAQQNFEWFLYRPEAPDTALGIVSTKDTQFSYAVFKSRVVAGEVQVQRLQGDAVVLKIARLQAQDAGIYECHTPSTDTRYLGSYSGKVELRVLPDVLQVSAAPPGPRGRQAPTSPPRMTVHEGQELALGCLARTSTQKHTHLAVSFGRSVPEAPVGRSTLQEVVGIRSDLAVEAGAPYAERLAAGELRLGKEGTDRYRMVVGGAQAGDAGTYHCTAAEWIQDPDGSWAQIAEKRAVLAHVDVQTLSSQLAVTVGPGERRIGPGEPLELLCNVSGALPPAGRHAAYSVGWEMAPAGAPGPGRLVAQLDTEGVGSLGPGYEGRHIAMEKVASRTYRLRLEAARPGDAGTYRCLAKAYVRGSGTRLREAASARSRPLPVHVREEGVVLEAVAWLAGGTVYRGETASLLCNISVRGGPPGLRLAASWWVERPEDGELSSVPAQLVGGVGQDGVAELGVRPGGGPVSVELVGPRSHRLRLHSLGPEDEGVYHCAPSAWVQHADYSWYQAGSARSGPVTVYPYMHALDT

[2] = molecular target: T2, D1 domain of IGSF8 (recombinant protein) (human, UniProt Q969P0 28-149, limits assumed); test: SPR, Biacore T100
T2 construct: domain: D1 (Ig V-set domain); also called Ig V-set domain of IGSF8
T2 sequence (looked up): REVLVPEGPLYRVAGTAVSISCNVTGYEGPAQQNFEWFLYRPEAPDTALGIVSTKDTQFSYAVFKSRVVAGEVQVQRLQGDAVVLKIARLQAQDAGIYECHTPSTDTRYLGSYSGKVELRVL

[3] = molecular target: T3, full-length IGSF8 (recombinant antigen of the SPR screen; IGSF8 target antigen of the phage panning) (human, UniProt Q969P0 28-579, limits assumed); test: SPR, Biacore T100
T3 sequence (looked up): T1 sequence

[4] = molecular target: T4, human IGSF8 expressed on the cell surface (human, UniProt Q969P0 28-613); test: FACS on CT26 cells with forced surface expression of human IGSF8
T4 construct: whole, on cells; also called human IGSF8 on CT26 cells; IGSF8 on MC38 cells
T4 sequence (looked up): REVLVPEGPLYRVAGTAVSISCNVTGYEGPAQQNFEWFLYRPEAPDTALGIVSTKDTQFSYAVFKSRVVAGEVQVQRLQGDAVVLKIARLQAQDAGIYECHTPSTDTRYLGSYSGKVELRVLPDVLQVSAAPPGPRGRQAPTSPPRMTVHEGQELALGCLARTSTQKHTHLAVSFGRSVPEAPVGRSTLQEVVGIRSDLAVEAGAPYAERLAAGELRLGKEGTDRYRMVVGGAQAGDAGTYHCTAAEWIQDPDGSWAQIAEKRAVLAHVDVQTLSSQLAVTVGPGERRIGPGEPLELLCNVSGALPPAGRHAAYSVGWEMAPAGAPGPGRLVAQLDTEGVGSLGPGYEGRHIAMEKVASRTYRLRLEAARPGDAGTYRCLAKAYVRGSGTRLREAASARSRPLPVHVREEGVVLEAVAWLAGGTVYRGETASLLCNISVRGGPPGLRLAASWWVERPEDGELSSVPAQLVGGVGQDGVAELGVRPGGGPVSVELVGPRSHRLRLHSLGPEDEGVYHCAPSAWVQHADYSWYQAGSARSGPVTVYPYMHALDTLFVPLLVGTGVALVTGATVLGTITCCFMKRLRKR
Description: For antibody binding assays based on cell-expressed antigens, 100,000 cells overexpressing the antigen (either the full-length IGSF8 or the D1 domain thereof) were washed with PBS buffer containing 2% FBS, and then incubated with 100 μL of antibodies or IgG of different concentrations for 30 minutes on ice. Cells were then washed twice with wash buffer, and incubated with 100 μL of 1:100 anti-human Fc-PE antibody for 15 minutes on ice. Cells were washed twice with wash buffer and analyzed on a FACS analyzer (CytoFlex, Beckman).

B1: Antibody C4 (antibody, V domains shown)
VH: QVQLLQSGGGLVQPGGSLRLSCAASGFTFSRYRMGWVRQAPGKGLEWVSSIARSGGRTYYADSVKGRFTISRDNSKNTLYLQMNSLRAEDTAVYYCARGVRYCSSPSCSRGPRYAMDVWGKGTTVTVSS
VL: EIVMTQSPSSVSASVGDRVTITCRASQGISSWLAWYQQKPGKAPKLLIYAASSLQSGVPSRFSGSGSGTDFTLTISSLQPEDFATYYCQQANSFPITFGQGTRLEIKR
notes: also called anti-IGSF8 C4
B1: binds [1].

B2: Antibody C8 (antibody, V domains shown)
VH: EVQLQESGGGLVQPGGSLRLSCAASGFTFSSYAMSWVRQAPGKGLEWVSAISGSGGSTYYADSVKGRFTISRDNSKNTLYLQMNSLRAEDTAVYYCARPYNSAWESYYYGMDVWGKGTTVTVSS
VL: B1 VL with E1D, V3Q, W32R, A91R, N92H, F94Y
notes: also called anti-IGSF8 C8
B2: binds [1].

B3: Antibody C9 (antibody, V domains shown)
VH: B1 VH with Q1E, L5V, Q6E, R33D, G35S, S50R, A52R, R53Y, Y59G
VL: DVVMTQSPATLSLSPGEGATLSCRASQSVRGYLAWYQQKPGQAPRLLIYDTFKRATGIPARFSGSGSGADFTLTISSLEPEDSAVYYCQQYFASPWTFGQGTKVEIKR
notes: also called anti-IGSF8 C9
B3: binds [1].

B4: Antibody C35 (1B1) (antibody, V domains shown)
VH: EVQLLESGGGLVQPGGSLRLSCAVSGFTFNSFAMSWVRQAPGKGLEWVSAISGSGGGTYYADSVKGRFTISRDNSKNTLYLQMNSLRAEDTAVYYCAREGWEVRTPGYFDYWGQGTLVTVSS
VL: DVVMTQSPSSLSASVGDRVTITCRASHRIFSYLTWYHQKPGKAPNLLISGASSLGAGVPSRFSGSGSGTDFTLTISSLQPEDFGTYYCQQSFSDPYTFGQGTKLEIKR
notes: also called mAb-1B1 (C35)
B4 gave a Kd [2] of under 50 nM and a Kd [3] of 2.06 nM.

B5: Antibody C6 (antibody, V domains shown)
VH: EVQLVESGGGLVQPGGSLRLSCAASGFTFSPYRMHWVRQAPGKGLEWVSRINPSGGRTWYADSVKGRFTISRDNSKNTLYLQMNSLRAEDTAVYYCARDATGRHYNGMDVWGQGTMVTVSS
VL: DIQMTQSPSTLSASVGDRVTITCRASQSINKWLAWYQQKPGKAPKLLIYKASTLESGVPSRFSGSGSGTDFTLTINSLQPEDFATYYCQQSHSAPWTFGQGTKVEIER
notes: also called anti-IGSF8 C6
B5: binds [1].

B6: Antibody C5 (antibody, V domains shown)
VH: EVQLVQSGGGLVQPGGSLRLSCAASGFTFSRYRMAWVRQAPGKGLEWVSNITRSGGVTRYADSVKGRFTISRDNSKNTLYLQMNSLRAEDTAVYYCARDPNRVTAISSHYGMDVWGKGTTVTVSS
VL: EIVLTQSPSTLSASVGDRVTISCRASQSISRWLAWYQQKPGQAPRLLIYDASNRATGVPARFSVSGSETDSTLTISSLEPEDFAMYYCQQRSNWPPMYTFGQGTKLEIKR
notes: also called anti-IGSF8 C5
B6: binds [1].

B7: Antibody C37 (3F12) (antibody, V domains shown)
VH: EVQLVQSGGGLVKPGGSLRLSCAASGFTFSSYSMNWVRQAPGKGLEWVSSISSSSSYIYYADSVKGRFTISRDNAKNSLYLQMNSLRAEDTAVYYCAGRQYDFWSGWDWFDPWGQGTLVTVSS
VL: DIQLTQSPSSLSASVGDRVTITCRASQSISTYLNWYQQKPGKAPKLLIHDASILQSGVPSRFSGSGSGTDFTLTISSLQAEDFATYYCQQSYSTLPYTFGQGTKVEIK
notes: also called mAb-3F12(C37)
For B7, the Kd [2] was under 50 nM, the Kd [3] was 22.5 nM and the EC50 [4] was 5.93 nM.

B8: Antibody C34 (1D7) (antibody, V domains shown)
VH: EVQLLESGGGLVQPGGSLRLSCAVSGFTFNSFAMSWVRQAPGKGLEWVSAISGSGGGTYYADSVKGRFTISRDNSKNTLYLQMNSLRAEDTAIYYCAREVDGYGAFDIWGQGTMVTVSS
VL: DIQMTQSPSSLSASVGNRVTITCRASQTIRNYLNWYQQKPGEAPKVLIYGASTLQSGVPSRFSASGSGTDFTLTISSLQPDDFATYHCQQTFSDPYTFGQGTKVEIK
notes: also called mAb-1D7 (C34)
Work on B8 yielded a Kd [2] of under 50 nM and a Kd [3] of 2.12 nM.

B9: Antibody C30 (B34) (antibody, V domains shown)
VH: EVQLLESGGGLVQPGGSLRLSCAASGFTFSSYAMSWVRQAPGKGLEWVSGITGSGGSTYYADSVKGRFTISRDNSKNTLYLQMNSLRAEDTAVYYCARGRQVDKWGQGTLVTVSS
VL: DIMLTQSPSSLSASVGDRVTITCRASQSIHNYLNWIQQTPGKAPKLLVFAASTLQRGVPPRYSGRGSGTEFTLTISSLQPEDFATYYCQQSYTTPLTFGGGTKVEIRR
notes: Expressed in CHO cells; also called mAb-B34 (C30)
With B9 the Kd [2] was under 50 nM, the Kd [3] was 13.8 nM and the EC50 [4] was 7.88 nM.

B10: Antibody C39 (8G4) (antibody, V domains shown)
VH: B9 VH with G99S, Q101N, V102L, K104S
VL: DIQLTQSPSSLSASVGDRVTITCRASQSIHNYLNWIQQTPGKAPKLLVFAASTLQRGVPPRYSGRGSGTEFTLTISSLQPEDFATYYCQQSYTTPLTFGGGTKVEIR
notes: also called mab-8G4 (C39)
Binder B10 has a Kd [2] of under 50 nM.

B11: Antibody C2 (antibody, V domains shown)
VH: EVQLLQSGGGLVQPGGSLRLSCAASGFTFSSYPMNWVRQAPGKGLEWVSRISRSGGRTSYADSVKGRFTISRDNSKNTLYLQMNSLRAEDTAVYYCARDATRRHYNGMDVWGKGTTVTVSS
VL: DVVMTQSPATLSLSPGERASLSCRASRSVGKYLAWYQQKPGQAPRLLFYYASLRAGDIPSRFTASGSGTDFTLTISRLEPEDFAVYYCQQYGSSPRTFGQGTKLEMKR
notes: also called anti-IGSF8 C2
B11: binds [1].

B12: Antibody C3 (antibody, V domains shown)
VH: B11 VH with E1Q, L5V, Q6E, S31H, N35R, R50S, S52R, S59K, R102G
VL: DVVMTQSPSSLSASVGDRVTITCRTSQVIGTSLNWYQQKPGRAPRLLIYSASNLQSGVPSRFSGSGHGTQFTLTISSLQPEDFATYSCQQSSRVPHTFGQGTKLEMRR
notes: also called anti-IGSF8 C3
B12: binds [1].

B13: Antibody C7 (antibody, V domains shown)
VH: B11 VH with L5E, Q6E
VL: B11 VL with D1E, V2T, V3T, M4L
notes: also called anti-IGSF8 C7
B13: binds [1].
